Laboratory results as given in US20110311550A1.

Experiments:
Assay in all cases: ELISA, lectin-captured E1E2 lysate, Ab 1 ug/ml
[1] = target: E1E2 complex (H77) with E1 mutation N305A/N325A (HCV genotype 1a, isolate H77) (UniProt P27958)
[2] = target: E1E2 complex (H77) with E2 mutation L441A (HCV genotype 1a, isolate H77) (UniProt P27958)
[3] = target: E1E2 complex (H77) with E1 mutation L258A (HCV genotype 1a, isolate H77) (UniProt P27958)
[4] = target: E1E2 complex (H77) with E1 mutation W320A (HCV genotype 1a, isolate H77) (UniProt P27958)
[5] = target: E1E2 complex (H77) with E1 mutation V266A (HCV genotype 1a, isolate H77) (UniProt P27958)
[6] = target: E1E2 complex (H77) with E2 mutation N623A (HCV genotype 1a, isolate H77) (UniProt P27958)
[7] = target: E1E2 complex (H77) with E1 mutation N205A (HCV genotype 1a, isolate H77) (UniProt P27958)
[8] = target: E1E2 complex (H77) with E2 mutation P619A (HCV genotype 1a, isolate H77) (UniProt P27958)
[9] = target: E1E2 complex (H77) with E2 mutation Y624A (HCV genotype 1a, isolate H77) (UniProt P27958)
[10] = target: E1E2 complex (H77) with E1 mutation N196A/N234A (HCV genotype 1a, isolate H77) (UniProt P27958)
[11] = target: E1E2 complex (H77) with E1 mutation V246A (HCV genotype 1a, isolate H77) (UniProt P27958)
[12] = target: E1E2 complex (H77) with E2 mutation G436A (HCV genotype 1a, isolate H77) (UniProt P27958)
[13] = target: E1E2 complex (H77) with E2 mutation T435A (HCV genotype 1a, isolate H77) (UniProt P27958)
[14] = target: E1E2 complex (H77) with E1 mutation A274G (HCV genotype 1a, isolate H77) (UniProt P27958)
[15] = target: E1E2 complex (H77) with E1 mutation A269G (HCV genotype 1a, isolate H77) (UniProt P27958)
[16] = target: E1E2 complex (H77) with E2 mutation Y443A (HCV genotype 1a, isolate H77) (UniProt P27958)
[17] = target: E1E2 complex (H77) with E1 mutation S273A (HCV genotype 1a, isolate H77) (UniProt P27958)
[18] = target: E1E2 complex (H77) with E2 mutation T621A (HCV genotype 1a, isolate H77) (UniProt P27958)
[19] = target: E1E2 complex (H77) with E1 mutation P328A (HCV genotype 1a, isolate H77) (UniProt P27958)
[20] = target: E1E2 complex (H77) with E1 mutation R317A (HCV genotype 1a, isolate H77) (UniProt P27958)
[21] = target: E1E2 complex (H77) with E2 mutation N428A (HCV genotype 1a, isolate H77) (UniProt P27958)
[22] = target: E1E2 complex (H77) with E1 mutation Q289A (HCV genotype 1a, isolate H77) (UniProt P27958)
[23] = target: E1E2 complex (H77) with E2 mutation A439G (HCV genotype 1a, isolate H77) (UniProt P27958)
[24] = target: E1E2 complex (H77) with E1 mutation N305A/N209A (HCV genotype 1a, isolate H77) (UniProt P27958)
[25] = target: E1E2 complex (H77) with E1 mutation S198A (HCV genotype 1a, isolate H77) (UniProt P27958)
[26] = target: E1E2 complex (H77) with E1 mutation R259A (HCV genotype 1a, isolate H77) (UniProt P27958)
[27] = target: E1E2 complex (H77) with E2 mutation Y618A (HCV genotype 1a, isolate H77) (UniProt P27958)
[28] = target: E1E2 complex (H77) with E1 mutation N305A/N234A (HCV genotype 1a, isolate H77) (UniProt P27958)
[29] = target: E1E2 complex (H77) with E1 mutation A319G (HCV genotype 1a, isolate H77) (UniProt P27958)

Substance: mouse anti-E1 MAb A4 (antibody)
- Binding relative to wt (%) [1]: 114%
- Binding relative to wt (%) [2]: 111%
- Binding relative to wt (%) [3]: 99%
- Binding relative to wt (%) [4]: 105%
- Binding relative to wt (%) [5]: 96%
- Binding relative to wt (%) [6]: 116%
- Binding relative to wt (%) [7]: 96%
- Binding relative to wt (%) [8]: 108%
- Binding relative to wt (%) [9]: 121%
- Binding relative to wt (%) [10]: 71%
- Binding relative to wt (%) [11]: 96%
- Binding relative to wt (%) [12]: 96%
- Binding relative to wt (%) [13]: 117%
- Binding relative to wt (%) [14]: 53%
- Binding relative to wt (%) [15]: 47%
- Binding relative to wt (%) [16]: 28%
- Binding relative to wt (%) [17]: 38%
- Binding relative to wt (%) [18]: 114%
- Binding relative to wt (%) [19]: 123%
- Binding relative to wt (%) [20]: 95%
- Binding relative to wt (%) [21]: 127%
- Binding relative to wt (%) [22]: 49%
- Binding relative to wt (%) [23]: 119%
- Binding relative to wt (%) [24]: 117%
- Binding relative to wt (%) [25]: 61%
- Binding relative to wt (%) [26]: 97%
- Binding relative to wt (%) [27]: 157%
- Binding relative to wt (%) [28]: 109%
- Binding relative to wt (%) [29]: 101%
